Assay results published in the DeepSol protein solubility set.

assay: soluble on expression in E. coli; label from the status in PepcDB or PDB records

**Q.** For “MGSDKIHHHHHHMDEQVTILHTNDIHSHFENWPRIQRYLLTEREQRRQSGSHVITVDLGDAVDRAHPLSEATQGQANVALLNAIGYDAVTIGNNEGLGLTHAALNRLYDRANFDVVLDNLTDTATQRPPQWALPAKIITTARGTRVLLLAFTAPFTLTYPLNGWTPASVKTRFPELLRQYAGQYDVLIVMSHLGINVDRWLAKQFPVIDVVIGSHTHHLLVNGELKNGVLIAAAGKYGEYIGRIELTIDHQHHVKAAAAHTVATASLPIVAGDETLITGWEQQGETLLTRQVVAKVPTQLRPHWHHASDLTALGLAAITDYAKTDLGMLNGGLFMRDLPAGMVNRNDLHTMLPHAMHVIRVTLSGEALWRLVYEMELVRPFLNKFPIKGMGFRGQVFGYIQYQGLTWKTGQHTLLVNGQPVNRQQTYQIALLDHDLFIPFFPTINISGRTEILFEAMLRTVVGDYLMRRWPVK”, which “soluble on expression in E. coli” value is on record?
**A.** Its value is “not soluble”.

**Q.** With “QVQLLQPGAELVKPGASVKLSCKASGYTFTSYWMYWVKQRPGQGLEWIGEIDPSDSYTNYNQNFKGKATLTVDKSSSTAFMQLSSLTSQDSAVYFCARSPHYYGTTYNYPMDYWGQGTSVTVSSAKTTPPSVYPLAPGCGDTTGSSVTLGCLVKGYFPESVTVTWNSGSLSSSVHTFPALLQSGLYTMSSSVTVPSSTWPSQTVTCSVAHPASSTTVDKKLEP” as the sequence, how does the “soluble on expression in E. coli” value read?
**A.** Its value is “soluble”.

**Q.** For “MQSCLRLAASLLSAALLCLPAPGAAQTASPAKKELLKFNWGAPTADYYALYVAKDQKLFEEVGLEPNFYFFPSGAPLLAGLKSKSLDVITTGLATVFALGQNVPLKLIYWELDHAAAEGLVVDPAAGIKSYKDIAKAKAIGAPSGTCAQVSLVLMAKELNLKYSNLNIINIAPPLYGNAFKSKSIQAAVAWSPYSSILNADQLPVVNWASDYTPDQGVCPGLTGVRTEFMQQHPDIGLKLVQVQAKAMDMIRKDPELGIGVLMKYLSVSREVAKHIYDREFSRIPTYAQQIDPASPYSLAAKDAGLARKLLIASQALAEVGTIPAPLTPQAIAEAIDPSAIQRYMKGERK”, which “soluble on expression in E. coli” value is on record?
**A.** Its value is “not soluble”.

**Q.** With “MDCLNIEELTRIIIKEIRDYEEKEGVKSRRKIEVPINVSARHVHLSEEHMEALFGKGYTLTPIRDLMQPGEFAAKETVIIVGPKGILPSVRILGPARKRTQVEVSKTDCYTLGIEAQVRDSGNHEGTPGCIIVGPMGAVKLEEGVIVAMRHVHMPKNLAEKIGIKDKNLLKVEVGEERKLIFENVLARVSEKFVLEMHVDTDEANAAGIKNQAKGYILL” as the sequence, how does the “soluble on expression in E. coli” value read?
**A.** Its value is “not soluble”.

**Q.** With “MRNVELIFIPTPTVGHLVPFLEFARRLIEQDDRIRITILLMKLQGQSHLDTYVKSIASSQPFVRFIDVPELEEKPTLGSTQSVEAYVYDVIERNIPLVRNIVMDILTSLALDGVKVKGLVVDFFCLPMIDVAKDISLPFYVFLTTNSGFLAMMQYLADRHSRDTSVFVRNSEEMLSIPGFVNPVPANVLPSALFVEDGYDAYVKLAILFTKANGILVNSSFDIEPYSVNHFLQEQNYPSVYAVGPIFDLKAQPHPEQDLTRRDELMKWLDDQPEASVVFLCFGSMARLRGSLVKEIAHGLELCQYRFLWSLRKEEVTKDDLPEGFLDRVDGRGMICGWSPQVEILAHKAVGGFVSHCGWNSIVESLWFGVPIVTWPMYAEQQLNAFLMVKELKLAVELKLDYRVHSDEIVNANEIETAIRYVMDTDNNVVRKRVMDISQMIQRATKNGGSSFAAIEKFIYDVIGIKP” as the sequence, how does the “soluble on expression in E. coli” value read?
**A.** The value was “soluble”.

**Q.** Which “soluble on expression in E. coli” value does the source give for “MSLLQRDLVNTTGFLRMIMEHNYEKFASVYDAVMDDSLYDLWTDFSLRHLPKSKGRNRLLELACGTGIQSVRFAQAGFDVTGLDLSQDMLAIAKKRAQSAKKKIDFIQGNMLDLSQVGQFDFVTCYSDSICYMQDEVDVGDVFKEVYDVLANDGIFIFDVHSTYQTDECFPGYSYHENADDFAMVWDTYADEAPHSVVHELTFFIQEDDGRFSRFDEVHEERTYELLTYDILLEQAGFKSFKVYADFEDKEPTKTSKRWFFVAYKEGHHHHHH” here?
**A.** Its value is “soluble”.

**Q.** For “MALPRITQKEMTEREQRELKTLLDRARIAHGRVLTNSETNSIKKDYIDKLMVEREAEAKKARQLKKKQAYKPDPEASFSWSANTSTRGRR”, which “soluble on expression in E. coli” value is on record?
**A.** Its value is “soluble”.

**Q.** With “GSHMNGGRPPHHPYDAKDVSEYSCRELHYTRFLTDGPCRSAKPVTELVCSGQCGPARLLPNAIGRVKWWRPNGPDFRCIPDRYRAQRVQLLCPGGAAPRSRKVRLVASCKCKR” as the sequence, how does the “soluble on expression in E. coli” value read?
**A.** The value was “soluble”.

**Q.** For “MPIATVCTWPAETEGGSTVVAADHASNYARKLGIQRDQLIQEWGWDEDTDDDIRAAIEEACGGELLDEDTDEVIDVVLLWWRDGDGDLVDTLMDAIGPLAEDGVIWVVTPKTGQPGHVLPAEIAEAAPTAGLMPTSSVNLGNWSASRLVQPKSRAGKR”, which “soluble on expression in E. coli” value is on record?
**A.** Its value is “soluble”.

**Q.** For “MGSDKIHHHHHHMDSEFANAVELSYECAPLLESLKEYSEKDIACFDVPGHVKNRGVAILNKYLGESLMKMDINSSPTMDNVSAPNGIIKNAQDLLAQAYMADEAFFITNGTTQAIHAMILSVIKPGEKVLLPRNIHKSVINALILCGGIPIFIQPEFDEKLGISLNITLEKVRTEIEKDCNIKALFFLNPTYYGVCADLESIIELCHKNNVLVLVDEAHGAHFPFHLDLPPSAISLGADMVAVSIHKTGGALTQSSALLLNRDNVSFEKVLQSINMLQSTSASYLLMASIDGARVNLVENGEKQLSKALNLSRYAKSKLNKIDGIKVLSTEILKQKGVKFIDETKLCINVKELNLTGFEVYDLLYKNFSIQVELGDSYNILALVSIGTNKSDIDRLVKALSIIAKVYRKESTLNEFNMVQINPIIKLNPREAFYAPKESVEINSCIDRICGESIMAYPPGIPIIAPGELITEEIMEYIIFLKNSNAYLTDVQDKNLDRILVIK”, which “soluble on expression in E. coli” value is on record?
**A.** The value was “not soluble”.

**Q.** Which “soluble on expression in E. coli” value does the source give for “MSRKKFMESVGATCSNWNWSWSFVNHEERFVVFGHWDVHKDGLIFDESWKGPGRKQSLEHISLIQNNGYRLKTFPMQYDQTETGTAKIKSFDWILEEKHLAGVDGLWYALNYSESVDITSIEEVVHPETYIEGATKEISVNAYERNPDARAKCILHYGCKCYVCKFDFQEVYGDIGKGFIHVHHEVSLAEIKKEYSVDPIKDLKPLCPNCHGIIHRTHPPISVDSLINLLRSRNLEHHHHHH” here?
**A.** The value was “soluble”.

**Q.** Which “soluble on expression in E. coli” value does the source give for “MSENPVVSDKKPGPSKDSSFFSDLYDNLNQNPYFNAGAGLAGIGIAMSFLRRTAQISNTYFRRRFMINLQINNEDAAYPWLLDFINNRSATQTRNLSANTVVHQAESGKTELSISFLPGHGTHFFVHDYRWIKVERQREKQVIQRDGIRTPFETVTLTTLGSDVKFFKRMLEQSAKEAIDNAETGLVIYQAVGPQWIRFGVPRKKRDIESVILDGRICEELVEDFQEFISSATWYADRGVPYRRGYLFYGPPGTGKSSFISALASHFGYSVCLLSLSERTLDDDRLNHLLNTAPPNSVVILEDIDAAFVSREDPMSNHPAYQGLSRVTFSGLLNALDGVACAEERLTFMTTNYVERLDPALIRPGRVDRKQYFGNATDGMLSKMFSRFYRQPSDSVLADEFVKRVSEHKTELSPAMIQGHFLMYKQDPRAALDNIKNMFKTV” here?
**A.** The value was “not soluble”.

**Q.** For “MSAEQFVGRWKLVESENFEDYLKEVGVGLLLRKAACAAKPTLEIKVNGNKWHVNQLSTFKNTTLEFTLGVEFDETTPDGRQFKSTITIEDGKVVHVQKRIKDSDHDSVITRWFEGEKLITTLQSGSVISRRAYIRE”, which “soluble on expression in E. coli” value is on record?
**A.** The value was “not soluble”.

**Q.** With “MGSDKIHHHHHHMECSGLYPRRNRSSHNQSEFQVSFMATELSALPANHPRVTFGKVGVLLVNLGTPDGTDYWPMRRYLAEFLSDKRVIEWSRLYWYPILYGIVLNKRPQKVGKAYEEIWNHERNESYLRTYTRSQGELMAAALKDFPNVVVDWAMRYGQPSIASRIDALKEQGCEKILLFPLYPQYAASTTATVNDKAFEHLMKLRWQPAIRTVPPYHDDPAYIEGLAASVKNHLATLDWEPEMLITSFHGIPQSYFKKGDPYYCHCQKTARLLREALGRTEKNFMITFQSRFGPEEWLQPYTDKTVEKLASEGIKRIAVMNPGFVSDCLETLEEIAGEAGEIFLHNGGEKFTHIPCLNDSTEGMNVLEKVVRRELQGWV” as the sequence, how does the “soluble on expression in E. coli” value read?
**A.** The value was “not soluble”.

**Q.** Which “soluble on expression in E. coli” value does the source give for “SHMAIVKVTDADFDSKVESGVQLVDFWATACGPCKMIAPVLEELAADYEGKADILKLDVDENPSTAAKYEVMSIPTLIVFKDGQPVDKVVGFQPKENLAEVLDKHL” here?
**A.** Its value is “soluble”.

**Q.** With “MAFHMPLKELQPVDTSLPEHVVKGAVVIDKEFTIWNHRAVIPSNALHTVFITINLLEQKLTDVVKMAARSMNLSEDDSYGLMADKPKRFITDDNLNSLGSGFILTLCASPDHYVKRITEILTEGNNISQMENAVKTLDEFSLDPALIEAFYRCSSLELLFSLIRDDRVCMSSTLLSTCLRALSSMLELAVGDFTWKSVPNDVVVSMASLVTGKAKREEANTLLAALQMLEQLVIGDDTTRDWILEEVPIETLIRHVEKSDERIALCALSLMNSMIRRCPDDEKRFELIKSLEVVPFRNAVHSSLLRGGGGVRNLNAIEQLVEVQRSLISAYETSPPTDAEVQKILDIESSEDVSEEIREMWKSQIGEHRCGRLAAISMVQFAEKSPQDLRMLISENTMRIEGGKWQLIPMWMRCCDIAAELFRVIPGRDELDRLIVVLFSTETPFPAVFACIVHLFHRTWREMQAKGGEMEKVACVVLEQLRHVLKRREIQDVEELSADLETFSYRAMQEIWREEQLGKENIQLHSEAVIQLKSKLRPKMEELVRINHLNYLKLGAVFRKPQKSKSLAKLAFWHWKLDASEKMLTITGCDGENYVEGVQRDDIRQVWIKDIADVTNNDEIDRKASSSRFTSSPSTQMLRGIRVQLKTTNDMKEGEVLMALTSDETQSVIWLEGLAELIGSKAVKSETDAMVERMLKMELRVRLLNVKLTNPEEKPEIPPIPDDIKSFISKF” as the sequence, how does the “soluble on expression in E. coli” value read?
**A.** The value was “not soluble”.

**Q.** With “MATVNKQAIAAAFGRAAAHYEQHADLQRQSADALLAMLPQRKYTHVLDAGCGPGWMSRHWRERHAQVTALDLSPPMLVQARQKDAADHYLAGDIESLPLATATFDLAWSNLAVQWCGNLSTALRELYRVVRPKGVVAFTTLVQGSLPELHQAWQAVDERPHANRFLPPDEIEQSLNGVHYQHHIQPITLWFDDALSAMRSLKGIGATHLHEGRDPRILTRSQLQRLQLAWPQQQGRYPLTYHLFLGVIARE” as the sequence, how does the “soluble on expression in E. coli” value read?
**A.** Its value is “not soluble”.

**Q.** For “MGSSHHHHHHSSGRENLYFQGHMSCTTDKLIQKYDALVRKTTEHKFAKELCAGTLKDRSLYIYLSQDLQFFETSLRLICKTTSLAPTTHALITLAKKIGFFSNDENSYFHDCLELLAPSLTKEERDNFDNKAIPGVDAYINFLDELRKDASITWPSLVTSLWVAEELYWRWARDTPRAPGLHWKYQKWIDLHDGEHFQTWCEFLKAEVDKFPVEEVESIFVKVSQFEFEFFESCYNA”, which “soluble on expression in E. coli” value is on record?
**A.** The value was “soluble”.

**Q.** With “MRKERRMIKLAIFDMDGTLTDEPSSWEYVHRRLHTDNHMNFRLYRNGFISYEEFFRSDVLAWLRMHPRLKKDDIAGILRDIKLRDGSSEVVNGLKERGLITAVVSGGISWLCDILNEYMQIDYNLSNVIATDEGGFVQPWGYIRVIPERKNIAVKSLQSMLHISKDETISIGDSMENGMIHINSSKAYIIGGKGRHGEIPLGNNIRNLLSYI” as the sequence, how does the “soluble on expression in E. coli” value read?
**A.** The value was “not soluble”.

**Q.** Which “soluble on expression in E. coli” value does the source give for “MGHHHHHHSHMRKLVIPKYYGRPSIGLALFGCTNRPFYHVCVFPDRALGRRYEGNILEQVGTFDPLPNQKNEKLVALNFGRLKYWIGERNAHISVPVLELLGERRNCLSGLFPIHPKSFIRAKDNRALIADQQLKVAAEAAEAEKVAQEQASTGAAATSHPQ” here?
**A.** Its value is “soluble”.

**Q.** For “SLRLLLELKALNSIDKKQLSNYLIQGFIYNILKNTEYSWLHNWKKEKYFNFTLIPKKDIIENKRYYLIISSPDKRFIEVLHNKIKDLDIITIGLAQFQLRKTKKFDPKLRFPWVTITPIVLREGKIVILKGDKYYKVFVKRLEELKKYNLIKKKEPILEEPIEISLNQIKDGWKIIDVKDRYYDFRNKSFSAFSNWLRDLKEQSLRKYNNFCGKNFYFEEAIFEGFTFYKTVSIRIRINRGEAVYIGTLWKELNVYRKLDKEEREFYKFLYDCGLGSLNSMGFGFVNTKKNSAR”, which “soluble on expression in E. coli” value is on record?
**A.** Its value is “soluble”.
